Experiment in all cases: magnetic tweezers SMBA
For series [1], the system named is IGHMBP2 helicase core (Homo sapiens). To be noted: no ATP; 7 pN; n=48; SMBA in helicase buffer without ATP (composition not in the material), 1-20 nM helicase, force cycles >15 pN / 7 pN / <3 pN.
Series [2] relates to IGHMBP2-FL (Homo sapiens). The conditions noted are these: no ATP; 7 pN; n=27; SMBA in helicase buffer without ATP (composition not in the material), 1-20 nM helicase, force cycles >15 pN / 7 pN / <3 pN.
The test system of series [3] is IGHMBP2/BC (Homo sapiens / Saccharomyces cerevisiae chimera). The conditions noted are these: no ATP; SMBA in helicase buffer without ATP (composition not in the material), 1-20 nM helicase, force cycles >15 pN / 7 pN / <3 pN.
Series [4] deals with UPF1 R487S (R-S) (Saccharomyces cerevisiae). To be noted: SMBA in helicase buffer without ATP (composition not in the material), 1-20 nM helicase, force cycles >15 pN / 7 pN / <3 pN.
Series [5] deals with UPF1/BC (Saccharomyces cerevisiae / Homo sapiens chimera). To be noted: no ATP; slides; SMBA in helicase buffer without ATP (composition not in the material), 1-20 nM helicase, force cycles >15 pN / 7 pN / <3 pN.
For series [6], the system named is yUPF1 helicase domain (Saccharomyces cerevisiae). To be noted: no ATP; 7 pN; n=11; SMBA in helicase buffer without ATP (composition not in the material), 1-20 nM helicase, force cycles >15 pN / 7 pN / <3 pN.

Regarding magnetic tweezers DNA hairpin, the binding signal (s (residence time)) in series [1] turned out to be 20; in series [2], 60; in series [3] it was 9540; in series [4] (ADPNP, sliding -0.109 nm/s, n=58), 1630; in series [4] (no ATP, sliding -0.063 nm/s), 1840; in series [5], 930. The substance also displayed a binding signal (s (residence time)) in series [6] of over 5500.

Source of the values: paper PMC6138625.
